Assay [1] has as its target T1, human IL-21 (human, UniProt Q9HBE4 32-162). The assay can be described thus: cell-based or functional assay.
A further assay deals with mouse IL-21 (mouse, UniProt Q9ES17 18-146). The assay can be described thus: KinExA solution equilibrium binding, 37 C, n=3. The method, then:
(§1) Ab327 is an engineered, humanized monoclonal IgG4 antibody that binds and neutralizes human IL-21. The purpose of this study was to determine the binding affinity of Ab327 for human, cynomolgus monkey, mouse, rat, and rabbit IL-21 (the sequences are given below). […] KinExA solution equilibrium binding experiments were performed using a fixed antibody concentration protocol and 2-fold serial dilutions of IL-21. Samples were equilibrated at 37° C. for 6-36 hours prior to analysis. Free antibody in the equilibrated samples was detected using a Dylight 649-conjugated anti-human IgG Fc polyclonal antibody. The resulting percent free antibody versus antigen concentration data were fit to an “affinity, standard” binding model using the KinExA Pro software, and the best fit binding affinity value (KD) was determined
(§2) The average KD from three independent experiments along with the standard deviation (human, cynomolgus monkey, mouse, and rat) or from a single determination (rabbit IL-21) is summarized in Table 3 below (apparent solution equilibrium binding affinity (KD) of Ab327).
(In general: Kinetic exclusion samples the free partner from a solution-phase mixture.)

The target of assay [2] is T1, human IL-21. The assay can be described thus: KinExA solution equilibrium binding, 37 C, n=3. The procedure:
as §1, §2

In assay [3] the target is T2, cynomolgus monkey IL-21 (cynomolgus monkey, UniProt Q9HBE4 32-162 (human entry)).
T2 construct: not in a public database; also called Cyno IL-21; cynomolgous monkey IL-21
The assay can be described thus: KinExA solution equilibrium binding, 37 C, n=3. The method, then:
as §1, §2

For a further assay, the target named is rat IL-21 (rat, UniProt A3QPB9 18-146). The assay can be described thus: KinExA solution equilibrium binding, 37 C, n=3. The method, then:
as §1, §2

Assay [4] deals with T2, cynomolgus monkey IL-21. The assay can be described thus: assay not named; cynomolgus monkey IL-21.
Another assay has as its target human IL-9 (human, UniProt P15248 19-144). The assay can be described thus: ELISA, Ab327 captured on plate, biotinylated cytokine. The method, then:
(§3) The objective of this study was to determine the binding specificity of Ab327 to human IL-21 as compared with the other members of the common-gamma (γc) chain receptor cytokines. The cytokine receptor γc-chain family consists of six members, IL-2, IL-4, IL-7, IL-9, IL-15, and IL-21. All members of this family signal through receptor complexes that contain the γc subunit. The specificity of Ab327 for binding to other human γc chain cytokine family members was determined using an ELISA. Briefly, Ab327 was captured on an ELISA plate coated with goat anti-human kappa IgG. Cytokines labeled with biotin titrated from 100 nM-780 pM were then added to the plate for 1 hour at 37° C. and any bound cytokine was detected using Neutravidin labeled with alkaline phosphatase. Commercially available mouse monoclonal antibody to IL-2 and goat polyclonal antibodies to IL-4, IL-7, IL-9 and IL-15 captured with donkey anti-goat IgG gave positive signals after binding the biotinylated cytokines and detection with Neutravidin.
(In an ELISA, binding on a coated surface is turned into a signal by an enzyme label.)

For a further assay, the target named is human IL-2 (human, UniProt P60568 21-153). The assay is described as above. The method, then:
as §3

In a further assay the target is T3, human IL-4 (human, UniProt P05112 25-153).
T3 sequence (looked up): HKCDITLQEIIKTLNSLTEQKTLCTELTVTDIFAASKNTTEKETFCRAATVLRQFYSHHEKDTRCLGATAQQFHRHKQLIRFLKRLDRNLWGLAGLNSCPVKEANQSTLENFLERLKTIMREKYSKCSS
The description is as above. The procedure:
as §3

The target in the next assay is human IL-15 (human, UniProt P40933 49-162). The assay is described as above. The method, then: as §3
Another assay has as its target T4, human IL-7 (human, UniProt P13232 26-177).
T4 sequence (looked up): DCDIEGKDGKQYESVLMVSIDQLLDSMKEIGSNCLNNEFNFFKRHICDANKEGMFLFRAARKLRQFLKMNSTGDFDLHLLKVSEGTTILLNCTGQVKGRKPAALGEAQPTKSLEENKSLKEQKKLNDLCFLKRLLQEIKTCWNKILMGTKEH
The description is as above. The method, then: as §3

The target of assay [5] is T1, human IL-21. The assay can be described thus: cell-based or functional assay. The source holds these as a separate data set.
Assay [6] has as its target T2, cynomolgus monkey IL-21. The assay can be described thus: cell-based or functional assay.
Assay [7] has as its target T1, human IL-21. The assay can be described thus: cell-based or functional assay. The source holds these as a separate data set.
For assay [8], the target named is T1, human IL-21. The assay can be described thus: assay not named; human IL-21.
In assay [9] the target is T1, human IL-21. The assay can be described thus: assay not named.

T1 sequence (Q9HBE4 32-162): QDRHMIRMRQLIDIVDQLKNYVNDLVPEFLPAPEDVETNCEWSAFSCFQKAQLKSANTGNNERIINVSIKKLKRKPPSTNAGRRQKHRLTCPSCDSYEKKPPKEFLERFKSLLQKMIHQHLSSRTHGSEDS
T2 sequence (Q9HBE4 other isoform, or with tags, fused parts or gaps): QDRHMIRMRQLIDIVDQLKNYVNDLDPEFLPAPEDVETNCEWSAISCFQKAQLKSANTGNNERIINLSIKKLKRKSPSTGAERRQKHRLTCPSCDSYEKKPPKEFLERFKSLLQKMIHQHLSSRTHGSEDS
human IL-9, sequence (P15248 19-144 limits assumed): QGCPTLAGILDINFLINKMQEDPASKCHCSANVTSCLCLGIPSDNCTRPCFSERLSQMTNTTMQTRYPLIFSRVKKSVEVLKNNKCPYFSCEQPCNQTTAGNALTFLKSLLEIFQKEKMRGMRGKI
human IL-2, sequence (P60568 21-153 limits assumed): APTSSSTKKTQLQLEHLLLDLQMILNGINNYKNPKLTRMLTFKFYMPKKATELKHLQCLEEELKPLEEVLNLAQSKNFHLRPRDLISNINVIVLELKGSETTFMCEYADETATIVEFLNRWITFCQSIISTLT
rat IL-21, sequence (A3QPB9 18-146): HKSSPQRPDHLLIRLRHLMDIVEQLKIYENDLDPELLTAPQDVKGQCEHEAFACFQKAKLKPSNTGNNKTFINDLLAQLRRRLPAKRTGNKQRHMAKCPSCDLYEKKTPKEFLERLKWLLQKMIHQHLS
human IL-15, sequence (P40933 49-162 limits assumed): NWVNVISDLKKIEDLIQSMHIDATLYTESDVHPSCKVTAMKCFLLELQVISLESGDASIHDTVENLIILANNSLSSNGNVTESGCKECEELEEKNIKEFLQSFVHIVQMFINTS

B1: Ab327 (antibody, human IgG4 S228P, kappa, F234A L235A, V domains shown)
VH: QVQLVQSGAEVKKPGASVKVSCKASGYTFTDYWMHWVRQAPGQGLEWMGLIDTSDVYTIYNQKFKGRVTMTRDTSTSTVYMELSSLRSEDTAVYYCARYGPLAMDYWGQGTLVTVSS
VL: DIQMTQSPSSLSASVGDRVTITCRASQDISNYLNWYQQKPGKAPKLLIYYTSRLHSGVPSRFSGSGSGTDFTLTISSLQPEDFATYYCQQFHTLRTFGGGTKVEIKR
modifications: N-linked glycosylation site at Asn294 of SEQ ID NO:3 may be glycosylated
notes: Engineered, humanized IgG4 (S225P, F231A/L232A) kappa antibody; expressed in HEK293 or CHO cells; also called final engineered humanized antibody; IL-21 antibody
A word on the Kd: it is the constant that tells how readily two partners part at equilibrium. On to B1, for which, in the assay with human IL-21 [1], the “fold increase of plasma cells (CD38 high, IgD low), donor 1, 26.7 nM antibody (IL-21 without antibody: 176)” value came to 11.7 fold. The “fold increase of plasma cells (CD38 high, IgD low), donor 2, 26.7 nM antibody (IL-21 without antibody: 114)” value in the assay with human IL-21 [1] came out at 3.38 fold. The “fold increase of plasma cells (CD38 high, IgD low), donor 3, 26.7 nM antibody (IL-21 without antibody: 47)” value with human IL-21 [1] worked out at 7.81 fold. Besides, in the assay with human IL-21 [1], the “fold increase of plasma cells (CD38 high, IgD low), donor 4, 26.7 nM antibody (IL-21 without antibody: 68)” value was found to be 6.87 fold. Also, in the assay with human IL-21 [1], the “fold increase of plasma cells (CD38 high, IgD low), donor 5, 26.7 nM antibody (IL-21 without antibody: 22)” value was 3.64 fold. Besides, the Kd with mouse IL-21 was 240000 pM; with human IL-21 [2], 0.8 pM; with cynomolgus monkey IL-21 [3], 0.3 pM; with rat IL-21 it was 230000 pM; in the assay with cynomolgus monkey IL-21 [4], approximately 0.5 pM; with human IL-21 [8], approximately 0.5 pM. In addition, the binding result with human IL-9, with human IL-2, in the assay with human IL-4, with human IL-15 and with human IL-7 was “no binding (tested: 100 nM)” throughout. For the same molecule, the “IC50, IM9 pan-STAT-luciferase reporter assay, IL-21 at 66.67 pM” value was found to be 46.7 pM with human IL-21 [5] and 48.3 pM with cynomolgus monkey IL-21 [6]. Besides, the “IC50, IL-21-induced proliferation of primary human B cells (3H-thymidine uptake)” value with human IL-21 [7] turned out to be 1150 pM.

B2: humanized antibody with CDRs derived from antibody 15M2, utilizing the 1-46 heavy chain human framework and O2 human light chain framework (antibody, V domains shown)
VH: QVQLVQSGAEVKKPGASVKVSCKASGYTFTDYWMHWVRQAPGQGLEWMGLIDTSDSYTIYNQKFKGRVTMTRDTSTSTVYMELSSLRSEDTAVYYCARYGPLAMDYWGQGTLVTVSS
VL: DIQMTQSPSSLSASVGDRVTITCRASQDISNYLNWYQQKPGKAPKLLIYYTSRLHSGVPSRFSGSGSGTDFTLTISSLQPEDFATYYCQQFNTLRTFGGGTKVEIK
notes: Human IgG4 expression vectors; also called the humanized antibody
For B2, the equilibrium dissociation constant (Kd) in the assay with human IL-21 [9] is approximately 0.5 pM.

B3: engineered antibody containing both heavy chain Asp55Glu and light chain Asn92His mutations (antibody, V domains shown)
VH: QVQLVQSGAEVKKPGASVKVSCKASGYTFTDYWMHWVRQAPGQGLEWMGLIDTSESYTIYNQKFKGRVTMTRDTSTSTVYMELSSLRSEDTAVYYCARYGPLAMDYWGQGTLVTVSS
VL: DIQMTQSPSSLSASVGDRVTITCRASQDISNYLNWYQQKPGKAPKLLIYYTSRLHSGVPSRFSGSGSGTDFTLTISSLQPEDFATYYCQQFHTLRTFGGGTKVEIK
notes: Human IgG4
On to B3, for which the Kd with cynomolgus monkey IL-21 [4] and with human IL-21 [8] was approximately 2 pM throughout.

Values taken from patent US20150266954A1 (Eli Lilly, published 2015).
